Measurements taken from US8530621B2, “Combined preparation of a thiazide diuretic and a loop diuretic” (The Regents of the University of California, priority 2007, dated 2013).
Changes are numbered by the printed parent chain. In names and notes the source's numbering stands.

B1: DOK1: PTB-containing protein, full-length DOK1, transfected into αβPy cells (protein)
chain: MDGAVMEGPLFLQSQRFGTKRWRKTWAVLYPASPHGVARLEFFDHKGSSSGGGRGSSRRLDCKVIRLAECVSVAPVTVETPPEPGATAFRLDTAQRSHLLAADAPSSAAWVQTLCRNAFPKGSWTLAPTDNPPKLSALEMLENSLYSPTWEGSQFWVTVQRTEAAERCGLHGSYVLRVEAERLTLLTVGAQSQILEPLLSWPYTLLRRYGRDKVMFSFEAGRRCPSGPGTFTFQTAQGNDIFQAVETAIHRQKAQGKAGQGHDVLRADSHEGEVAEGKLPSPPGPQELLDSPPALYAEPLDSLRIAPCPSQDSLYSDPLDSTSAQAGEGVQRKKPLYWDLYEHAQQQLLKAKLTDPKEDPIYDEPEGLAPVPPQGLYDLPREPKDAWWCQARVKEEGYELPYNPATDDYAVPPPRSTKPLLAPKPQGPAFPEPGTATGSGIKSHNSALYSQVQKSGASGSWDCGLSRVGTDKTGVKSEGST
B2: L325R: HA-tagged mouse talin F23 (residues 206-405) mutant L325R expressed by transfection (protein, UniProt P26039 206-405, looked up, variant L325R)
chain: SRDPVQLNLLYVQARDDILNGSHPVSFDKACEFAGFQCQIQFGPHNEQKHKAGFLDLKDFLPKEYVKQKGERKIFQAHKNCGQMSEIEAKVRYVKLARSLKTYGVSFFLVKEKMKGKNKRVPRLLGITKECVMRVDEKTKEVIQEWSLTNIKRWAASPKSFTLDFGDYQDGYYSVQTTEGEQIAQLIAGYIDIILKKKKS
modifications: F2-F3 subdomains HA tag
notes: HA-tagged mouse talin F23 (residues 206-405) mutant L325R expressed by transfection
B3: S379R: HA-tagged mouse talin F23 (residues 206-405) mutant S379R expressed by transfection (protein, UniProt P26039 206-405, looked up, variant S379R)
chain: B2 chain with R120L, S174R
modifications: F2-F3 subdomains HA tag
notes: HA-tagged mouse talin F23 (residues 206-405) mutant S379R expressed by transfection
B4: F23(W359A): talin F23 mutant W359A that strongly inhibits the MD binding site (protein)
chain: B2 chain with R120L, W154A
modifications: left off: small tags and cut ends
B5: S365D: HA-tagged mouse talin F23 (residues 206-405) mutant S365D expressed by transfection (protein, UniProt P26039 206-405, looked up, variant S365D)
chain: B2 chain with R120L, S160D
modifications: F2-F3 subdomains HA tag
notes: HA-tagged mouse talin F23 (residues 206-405) mutant S365D expressed by transfection
B6: wild type F23: F2 and F3 sub-domains (F23) of talin, residues 206-405, wild type (protein, UniProt P26039 206-405, looked up, fragment)
chain: B2 chain with R120L
modifications: F2-F3 subdomains
notes: F2 and F3 sub-domains (F23) of talin, residues 206-405, wild type
B7: Q381V: HA-tagged mouse talin F23 (residues 206-405) mutant Q381V expressed by transfection (protein, UniProt P26039 206-405, looked up, variant Q381V)
chain: B2 chain with R120L, Q176V
modifications: F2-F3 subdomains HA tag
notes: HA-tagged mouse talin F23 (residues 206-405) mutant Q381V expressed by transfection

Experiments:
[1] = test system: αIIbα6β3β1 high-affinity chimeric integrin (αβPy cells); test: PAC1 binding by flow cytometry in αβPy cells transfected with talin F23 or DOK1; assay type: cell-based; conditions: talin-dependent constitutively active chimeric integrin, transient transfection
Text: (§1) A-B. CHO cells were transiently transfected with plasmids encoding αIIb and β3, or mutants thereof. In some samples (indicated above) a plasmid encoding a shRNA for talin-1 (Tadokoro et. al. 2003) or a control shRNA was co-transfected with the integrin plasmids. Cells were double stained for integrin αIIbβ3 expression (B-D57) and activated αIIbβ3 (PAC1) and flow cytometry was used to measure the geometric mean fluorescence intensity (F) of PAC1 binding. Non-specific PAC1 binding (F0) was measured in the presence of a competitive antagonist of αIIbβ3, Ro43-5054 and maximal binding (Fmax) was measured in the presence of the activating antibody Anti-LIBS6. Activation index was defined as 100*(F−F0)/(Fmax−F0) (see Experimental Procedures). A. Activation of αIIb(R995A)β3 integrin was diminished in the cells co-transfected with talin-1 knockdown shRNA. Similarly, the β3(Y747A) mutation blocks talin binding to the MD site and the αIIb(R995A)β3(Y747A) integrin is not activated. B. Talin-mediated activation requires specific contacts between talin F3 and the β3 MP region. Depicted is the Activation Index (gray bars) or the αIIbβ3 expression, indicated as fluorescence intensity of D57 staining (black bars). The activating effect of αIIb(R995A) is diminished when it is paired with the β3 MP mutants β3(F727A) or β3(F730A). C-D. CHO cells stably expressing WT human αIIbβ3 (A5 cells), or a high-affinity chimeric integrin (αβPy cells), were transiently co-transfected with vectors for WT or mutant HA-tagged talin F23 and eGFP protein as a transfection marker. PAC1 binding was measured by flow cytometry in the subset of cells expressing GFP. Insets show representative western blots of cell lysates probed with anti-HA antibody and indicate that WT and mutant HA-talin F23 expressed to similar levels. C. Specific PAC1 binding in αIIbβ3-expressing A5 cells transfected with talin F23 mutants relative to that in cells transfected with wild type talinF23 (set as 100). […] D. PAC1 binding in αIIbα6β3β1-expressing αβPy cells transfected with talin F23 or its mutants relative to that in cells transfected with empty vector (set as 100). The MP-contacting talin F23 mutants (L325R, S365D, S379R, Q381V) inhibited activation, whereas the MD-contacting mutant talin F23(W359A) had no significant effect on activation levels. All data are an average of three of more measurements, error bars are standard deviations.
A. CHO cells stably expressing a high-affinity chimeric integrin (αβPy cells) were transiently co-transfected with empty vector (pCDNA3.1), WT talin F23 or full-length DOK1; eGFP protein was used as a transfection marker. The level of integrin activation was measured by flow cytometry of harvested cells using PAC1 antibody as described in the legend to FIG. 3. Data are an average of three or more measurements; error bars are standard deviations. B. Overlay of the DOK and talin PTB domains. The critical differences between the two domains are the residues between strands S1 and S2. C. Weighted shift map (see Experimental Procedures) obtained by observing ^1H-^15N HSQC spectra on addition of the β3/PIPKIα peptide to the DOK PTB domain (10:1 molar ratio). Grey columns indicate residues whose peaks experienced severe line broadening in the bound state and could not be assigned.
To investigate this possibility we used αβPy cells, a CHO cell-line expressing a talin-dependent constitutively active chimeric integrin composed of the extracellular and transmembrane domains of αIIbβ3 and the cytoplasmic tails of α6β1 (Baker et al., 1997). We transiently transfected αβPy cells with cDNAs encoding the mutant F23 constructs (L325R, S365D, S379R, or Q381V).
For experiments to assess the functional effect of point mutants in the β3 tail, CHO cells were co-transfected with pCDM8 plasmids coding for wildtype or mutant sequences of βIIb and β3. […]

integrin αIIbβ3 = biological target: T1, integrin αIIbβ3 (Homo sapiens, UniProt P05106+P08514); test: PAC1 binding by flow cytometry in A5 cells transfected with talin F23; assay type: cell-based; conditions: CHO cells stably expressing WT human αIIbβ3 (A5 cells), transient transfection with HA-talin F23
T1 construct: expressed in transfected cells; host or cells: CHO (A5 cells)
Text: as §1
Contacts between talin and the MP region of the β3 cytoplasmic tail may constitute an interaction that is a key to the activation process. To test this concept, the effects of a number of designed mutations, both in the β3 tail and in the talin F3 sub-domain, were investigated. Integrin activation was assessed using the antibody PAC1 and flow cytometry as previously described (Partridge et al., 2005).
For experiments to assess the functional effect of point mutants in the β3 tail, CHO cells were co-transfected with pCDM8 plasmids coding for wildtype or mutant sequences of […] and β3. Transfection was done using the plus reagent and lipofectamine (Life Technologies); 24 hours later cells were stained with B-D57 and PAC1 in the presence and absence of Ro43-5054 or Anti-LIBS6. The biotinylated monoclonal antibody, B-D57 was used to detect expression of αIIbβ3, while PAC1, an activation specific, monoclonal IgM antibody was used to assess the activation state of the αIIbβ3 integrin. This antibody is an authentic ligand for integrin αIIbβ3 (Abrams et al., 1994) and its binding correlates with the binding of natural ligands, such as fibrinogen (Shattil et al., 1985). Cells were analyzed on a FACScan using both B-D57 and PAC1 antibodies as described previously (Partridge et al., 2005). The geometric mean fluorescence intensity (MFI) of PAC1 staining in the presence of Ro43-5054 (2 μM) was used to estimate non-specific PAC1 binding (F0). […]

Row | Molecule | integrin activation (PAC1 binding) [1] | integrin αIIbβ3 activation (PAC1 binding) (integrin αIIbβ3)
1 | B1 | inhibited integrin activation | 
2 | B2 | blocked integrin activation | diminished the ability of F23 to activate integrin αIIbβ3
3 | B3 | blocked integrin activation | diminished the ability of F23 to activate integrin αIIbβ3
4 | B4 | had no effect on activation | prevent activation
5 | B5 | blocked integrin activation | diminished the ability of F23 to activate integrin αIIbβ3
6 | B6 | modestly increased activation | activated the integrin
7 | B7 | blocked integrin activation | diminished the ability of F23 to activate integrin αIIbβ3
